Reference: patent publication US7838231 (REGENTS OF THE UNIVERSITY OF MICHIGAN, dated 2010)

Legend:
Test in all cases: direct yeast two-hybrid assay
[1] = target: T1, inversin (NPHP2), human full length, yeast two-hybrid prey (human, UniProt Q9Y283 1-1065)
T1 construct: also called INVS
T1 sequence: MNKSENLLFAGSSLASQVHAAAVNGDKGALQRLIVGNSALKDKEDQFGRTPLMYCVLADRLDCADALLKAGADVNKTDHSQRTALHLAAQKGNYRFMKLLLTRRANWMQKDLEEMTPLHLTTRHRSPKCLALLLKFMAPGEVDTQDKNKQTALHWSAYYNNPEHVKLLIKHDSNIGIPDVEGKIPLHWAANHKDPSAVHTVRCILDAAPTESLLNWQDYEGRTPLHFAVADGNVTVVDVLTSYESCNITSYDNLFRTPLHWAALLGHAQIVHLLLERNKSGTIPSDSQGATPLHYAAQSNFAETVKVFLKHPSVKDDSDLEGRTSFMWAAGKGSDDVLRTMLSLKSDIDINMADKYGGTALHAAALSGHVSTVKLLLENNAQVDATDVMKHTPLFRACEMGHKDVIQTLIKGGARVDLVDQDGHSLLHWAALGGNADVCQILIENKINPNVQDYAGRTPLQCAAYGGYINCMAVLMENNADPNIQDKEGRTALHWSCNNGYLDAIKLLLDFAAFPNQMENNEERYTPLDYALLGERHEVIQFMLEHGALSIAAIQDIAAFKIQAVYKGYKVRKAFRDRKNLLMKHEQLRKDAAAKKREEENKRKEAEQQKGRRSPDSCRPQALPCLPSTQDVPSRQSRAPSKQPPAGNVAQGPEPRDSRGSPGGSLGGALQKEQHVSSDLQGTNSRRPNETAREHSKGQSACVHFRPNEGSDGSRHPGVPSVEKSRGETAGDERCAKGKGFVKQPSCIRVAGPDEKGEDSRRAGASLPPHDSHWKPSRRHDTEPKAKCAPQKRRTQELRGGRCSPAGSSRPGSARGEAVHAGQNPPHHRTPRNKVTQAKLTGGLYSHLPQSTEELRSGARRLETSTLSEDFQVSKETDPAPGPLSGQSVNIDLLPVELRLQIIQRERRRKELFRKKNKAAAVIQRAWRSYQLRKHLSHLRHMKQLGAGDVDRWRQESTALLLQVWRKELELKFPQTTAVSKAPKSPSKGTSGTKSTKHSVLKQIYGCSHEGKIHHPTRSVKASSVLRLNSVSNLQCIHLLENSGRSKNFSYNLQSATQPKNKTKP

[2] = target: T2, RPGR (non-ORF15 containing isoform), human full length, yeast two-hybrid prey (human, UniProt Q92834-2 1-815)
T2 construct: also called non-ORF15 containing RPGR isoform
T2 sequence (looked up): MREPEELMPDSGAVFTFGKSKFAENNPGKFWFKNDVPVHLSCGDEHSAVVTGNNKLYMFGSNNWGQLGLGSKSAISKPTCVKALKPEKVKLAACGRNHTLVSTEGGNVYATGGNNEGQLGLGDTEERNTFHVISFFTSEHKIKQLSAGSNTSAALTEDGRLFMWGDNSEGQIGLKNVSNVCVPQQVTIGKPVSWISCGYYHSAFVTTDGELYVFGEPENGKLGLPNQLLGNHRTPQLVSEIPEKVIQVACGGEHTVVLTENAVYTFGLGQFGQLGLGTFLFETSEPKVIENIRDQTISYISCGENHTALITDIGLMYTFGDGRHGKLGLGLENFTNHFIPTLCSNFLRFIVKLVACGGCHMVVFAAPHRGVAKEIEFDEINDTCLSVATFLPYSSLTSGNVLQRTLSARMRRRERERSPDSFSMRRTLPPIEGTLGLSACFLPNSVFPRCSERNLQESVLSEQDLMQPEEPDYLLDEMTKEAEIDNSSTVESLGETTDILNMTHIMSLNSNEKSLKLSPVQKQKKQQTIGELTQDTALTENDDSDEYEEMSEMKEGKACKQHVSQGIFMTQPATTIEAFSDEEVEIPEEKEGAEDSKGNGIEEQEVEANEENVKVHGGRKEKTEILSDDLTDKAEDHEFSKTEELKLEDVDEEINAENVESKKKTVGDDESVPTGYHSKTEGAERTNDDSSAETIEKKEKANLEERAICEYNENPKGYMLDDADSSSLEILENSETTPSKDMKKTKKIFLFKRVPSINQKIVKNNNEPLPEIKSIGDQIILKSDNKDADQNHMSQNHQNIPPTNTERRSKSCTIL

[3] = target: T3, NPHP1, human full length, yeast two-hybrid prey (human, UniProt O15259 1-732)
T3 construct: also called nephrocystin 1
T3 sequence (looked up): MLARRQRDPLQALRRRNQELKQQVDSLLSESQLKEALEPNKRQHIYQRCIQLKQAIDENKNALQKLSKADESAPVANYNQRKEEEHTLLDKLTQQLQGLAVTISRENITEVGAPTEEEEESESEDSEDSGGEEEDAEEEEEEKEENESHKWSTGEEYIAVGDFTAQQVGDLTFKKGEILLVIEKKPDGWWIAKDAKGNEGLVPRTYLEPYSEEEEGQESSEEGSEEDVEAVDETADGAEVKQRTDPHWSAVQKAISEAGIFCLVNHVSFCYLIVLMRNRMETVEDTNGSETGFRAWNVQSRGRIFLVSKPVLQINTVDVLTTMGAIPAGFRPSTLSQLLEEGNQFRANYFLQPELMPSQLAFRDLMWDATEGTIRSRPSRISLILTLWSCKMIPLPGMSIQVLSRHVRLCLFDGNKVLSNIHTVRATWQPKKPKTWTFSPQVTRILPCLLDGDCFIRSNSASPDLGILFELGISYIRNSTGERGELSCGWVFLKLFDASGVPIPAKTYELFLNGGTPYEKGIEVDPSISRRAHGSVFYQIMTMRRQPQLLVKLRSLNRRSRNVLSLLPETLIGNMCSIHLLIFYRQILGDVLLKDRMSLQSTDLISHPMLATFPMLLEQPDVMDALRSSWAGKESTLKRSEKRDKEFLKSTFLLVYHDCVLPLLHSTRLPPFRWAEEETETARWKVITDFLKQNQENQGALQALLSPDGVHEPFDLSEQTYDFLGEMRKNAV

Measured: binding result

B1: full-length human nephrocystin-5 (NPHP5), yeast two-hybrid fusion (other, not shown: small tags and cut ends)
chain: MKPTGTDPRILSIAAEVAKSPEQNVPVILLKLKEIINITPLGSSELKKIKQDIYCYDLIQYCLLVLSQDYSRIQGGWTTISQLTQILSHCCVGLEPGEDAEEFYNELLPSAAENFLVLGRQLQTCFINAAKAEEKDELLHFFQIVTDSLFWLLGGHVELIQNVLQSDHFLHLLQADNVQIGSAVMMMLQNILQINSGDLLRIGRKALYSILDEVIFKLFSTPSPVIRSTATKLLLLMAESHQEILILLRQSTCYKGLRRLLSKQETGTEFSQELRQLVGLLSPMVYQEVEEQKLHQAACLIQAYWKGFQTRKRLKKLPSAVIALQRSFRSKRSKMLLEINRQKEEEDLKLQLQLQRQRAMRLSRELQLSMLEIVHPGQVEKHYREMEEKSALNIQKHWRGYRERKNFHQQRQSLIEYKAAVTLQRAALKFLAKCRKKKKLFAPWRGLQELTDARRVELKKRVDDYVRRHLGSPMSDVVSRELHAQAQERLQHYFMGRALEERAQQHREALIAQISTNVEQLMKAPSLKEAEGKEPELFLSRSRPVAAKAKQAHLTTLKHIQAPWWKKLGEESGDEIDVPKDELSIELENLFIGGTKPP
notes: Full-length NPHP5 cDNA (598 amino acid residues) fused to a GAL4 domain; also called KIAA0036
no binding: [1] | [2] | [3]
